In the data set the test system is SNF2h (human). Kind of data set: Cy3 fluorescence intensity titration.

Substance 0-601-40 nucleosome, Cy3 returned a binding signal (fold lower K1/2 than apo) of 3.
0-601-78 nucleosome, Cy3 gave a K half of 353 nM.

Source of the values: publication PMC2869534.
